Laboratory results taken from paper PMC6347818.

Experiments:
[1] = biological target: recombinant Plasmodium vivax Apical Membrane Antigen 1, PvAMA1-His6 (Plasmodium vivax) (UniProt Q9TY14); test: SPR; Biacore T200; PvAMA1-His6 amine-coupled on a CM5 chip; peptides injected at 50 µL/min, 25 °C, PBS; steady-state model, apparent KD
[2] = biological target: recombinant Plasmodium vivax Apical Membrane Antigen 1, PvAMA1-His6 (Plasmodium vivax) (UniProt Q9TY14); test: ITC; MicroCal VP-ITC; 9.43 µmol/L PvAMA1-His6 in the cell titrated with 300 µmol/L peptide (10 µL injections), 25 °C, PBS; one-site model

cyclic PvRON2 (2035-2074) peptide
Kd [1]: 23.9 µM | Ka [2]: 300000 M⁻¹ | dH [2]: -36 kcal/mol | stoichiometry N (peptide/protein) [2]: 0.6
